This note sets out measurements from US8227193 (University of California, dated 2012).

The experiment has as its target T1, human p52 DNA-binding domain (p52 DBD) (human, UniProt Q00653 1-340).
T1 construct: Expressed in E. coli from pET11a, without a poly-His tag; also called p52 RHD; NF-kB2/p52 Rel homology domain
T1 sequence: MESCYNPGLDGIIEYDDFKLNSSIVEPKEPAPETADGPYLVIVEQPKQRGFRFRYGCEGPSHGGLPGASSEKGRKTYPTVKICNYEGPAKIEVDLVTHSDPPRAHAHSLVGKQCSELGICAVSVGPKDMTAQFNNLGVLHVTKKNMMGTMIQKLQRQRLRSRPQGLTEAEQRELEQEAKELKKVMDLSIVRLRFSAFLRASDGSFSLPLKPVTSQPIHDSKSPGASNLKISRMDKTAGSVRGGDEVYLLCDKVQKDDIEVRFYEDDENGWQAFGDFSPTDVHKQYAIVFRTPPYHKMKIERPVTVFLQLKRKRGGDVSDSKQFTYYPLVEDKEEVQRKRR
As to the kind of experiment: co-refolding from 7 M urea (1:1.2 molar ratio), Ni-affinity capture through the His tag of RelB DBD (uncomplexed p52 DBD flows through), size exclusion; both proteins confirmed by western blotting. The protocol:
His-RelB DBD and p52 DBD that had been purified as described above were mixed together in 1:1.2 molar ratio (i.e., with excess p52 DBD) and diluted to ~0.4 mg/ml concentration in a denaturing buffer B (7 M urea, 0.5 M NaCl, 20 mM Tris pH 7.5, 5 mM DTT, 10% glycerol). The denatured protein mixture (100 ml total volume that contained 40 mg total protein) was refolded by slowly removing urea by dialysis. The sample was subjected to dialysis against 2 L buffer C (buffer C was the same as buffer B except it lacked urea) for 6 hours. The dialysis step was repeated two more times. After dialysis, the refolded heterodimer was loaded onto the Ni-affinity column. Excess, uncomplexed p52 DBD flows through the column because it has no poly-His tag to bind Ni-affinity matrix. The heterodimer was eluted with imidazole. The eluate was concentrated and further purified using size exclusion chromatography (Superdex 200, Pharmacia). Fractions containing the heterodimer were pooled and concentrated. The presence of both proteins was confirmed by standard western blotting.
Background: SEC sorts molecules by how far they enter the pores of the column.

B1: poly histidine tagged murine RelB DNA-binding domain (His-RelB DBD) (other)
chain: MPSRRAARESAPELGALGSSDLSSLSLTVSRTTDELEIIDEYIKENGFGLVGTQLSEMPRLVPRGPASLSSVTLGPAAPPPPATPSWSCTLGRLVSPGPCPRPYLVITEQPKQRGMRFRYECEGRSAGSILGESSTEASKTQPAIELRDCGGLREVEVTACLVWKDWPHRVHPHSLVGKDCTDGVCRVRLRPHVSPRHSFNNLGIQCVRKKEIEAAIERKIQLGIDPYNAGSLKNHQEVDMNVVRICFQASYRDQQGHLHRMDPILSEPVYDKKSTNTSELRICRINKESGPCTGGEELYLLCDKVQKEDISVVFSTASWEGRADFSQADVHRQIAIVFKTPPYEDLEISEPVTVNVFLQRLTDGVCSEPLPFTYLPRDHDSYGVDKKRKRGLPDVLGEL
notes: Expressed in E. coli from pET15b as a poly histidine fusion protein; also called RelB RHD; RelB Rel homology domain; not shown: poly-histidine tag from vector pET15b (Novagen)
For B1, the binding result is reported as “binds”.
